This passage reports Kd results from article PMC3689846 (Science (New York, N.Y.), 2013).

This experiment has as its target eOD-GT6 (germline-targeting engineered outer domain of gp120) (HIV-1 isolate HXB2, engineered outer …). The experiment in a line: SPR. For orientation: Surface plasmon resonance follows binding to a sensor surface in real time, without labels.

The term Kd denotes the equilibrium constant for the complex coming apart. Higher therefore signals a looser complex.

B1: NIH45-46 (mature) (antibody, V domains shown)
VH: QVRLSQSGGQMKKPGESMRLSCRASGYEFLNCPINWIRLAPGRRPEWMGWLKPRGGAVNYARKFQGRVTMTRDVYSDTAFLELRSLTSDDTAVYFCTRGKYCTARDYYNWDFEHWGRGAPVTVSS
VL: EIVLTQSPATLSLSPGETAIISCRTSQSGSLAWYQQRPGQAPRLVIYSGSTRAAGIPDRFSGSRWGADYNLSISNLESGDFGVYYCQQYEFFGQGTKVQVD
Consider B1, for which the Kd turned out to be 4 nM.
